Experimental data published in US20120156193A1.

Target: A beta 1-40 oligomer (synthetic A beta1-40, HCl form, 0.1 mg/ml in PBS, incubated at 37 degrees C for one hour) (UniProt P05067)
Assay: SPR, Biacore 3000, A beta oligomer on CM5 chip, antibody as analyte

- Kd: 2.91 nM
- koff: 0.000168 s⁻¹
- kon: 57800 M⁻¹ s⁻¹
Substance: Anti-A beta antibody 6E10 (Covance Immuno-Technologies)
